The data set is described as follows: yeast display, Sf9 membrane polyspecificity reagent, FACS + sequencing; frameworks hold sequencing errors. In a few lines: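 Sorting gates, low and high (top ~1%), were placed on anti-HA fluorescence to track expression and on streptavidin fluorescence to track reagent binding. A clone's polyreactivity label is taken from the gate it came out of. The reagent was 10% biotinylated, detergent-solubilized Sf9 membrane, applied for 1 hour at 4 °C to galactose-induced yeast display cells.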
For “QVQLVESGGGLVQAGGSLRLICAASGSIFYNNDMGWYRQAPGKERELVAAINWNGGSTYYADSVKGRFTISRDNAKNTVYLQMNSLKPEDTAVYYCNAEPFWYNYGYDDDYWGQGTQVTVSS”, the “polyreactivity (PSR sort gate)” value was “high polyreactivity”. For the sequence “QVQLVESGGGLVQAGGSLRLICAASGSILYKYAMGWYRQAPGKERELVAAISSRGGNTYYADSVKGRFTISRDNSKNTVYLQMNSLKPEDTAVYYCAADLWAGKYGEYDYWGQGTQVTVSS”, the “polyreactivity (PSR sort gate)” value is on record as “high polyreactivity”. The value for “QVQLVESGGGLVQAGGSLRLICAASGSTFDLYAMGWYRQAPGKESELVAAITRCGSTYYADSVKGRFTISRDNAKNTVYLQMNSLKPEDTAVYYCAASRYYNTVHNGGDYWGQGTQVTLSS” was “high polyreactivity”; that for “QVQLVESGGGLVQAGGSLRLICAASGSTFGDYDMGWYRQAPGKETELVAAISNGGSTYYADSVKGRFTISRDYAKNTVYLQMNSLKREETAVYYCNADNVEIRSTYEYGRYLYGYWGQGTQVTVSS” was “low polyreactivity”; that for “QVQLVESGGGLVQAGGSLRLICAASGSTFGFYGMGWYRQAPGKERELVASIDSRGDSTYADSVKGRFTISRDNAKKTVYVQMNSLKPEDTAVYYCAAESWYTWFDSWGQGTQVTVSS” was “low polyreactivity”. The value for “QVQLVESGGGLVQAGGSLRLICAASGSTFPTYAMGWYRQAPGKERELVAAISTRGGSTYYADSVKGRFTISRDNAKNTVYLQMNSVKPEDTAVYYCATGKTVGRYHYEYWGQGTQVTVSS” was “low polyreactivity”; that for “QVQLVESGGGLVQAGGSLRLICAASGSTFQLTAMGWYIQAPGTEREFVASITDSGGRTYYADSVKGRFTISRDNANNTVYLQMNSLKPVDTAVYYCNTAGAAERRRAYDHDYWGQGTQVTVSS” was “high polyreactivity”. The value for “QVQLVESGGGLVQAGGSLRLICAASGSTFSSYAMGLYIQAPGKEREFVAAINTDGGSTYYADSVKGRFTISRDNAKNTVYLQMNSLKPEDTAVYYCAADDISLAAHFDSWGQGTQVTVSS” was “low polyreactivity”; that for “QVQLVESGGGLVQAGGSLRLICAASGSTFVFYAMGWYRQAPGKERELYATISTGGSTYADSVKGRFTISRDNSKNTVYLQMNSLIPEDTAVYYCNARLRSFTLSDAEYEYWGQGTQETVSS” was “low polyreactivity”; that for “QVQLVESGGGLVQAGGSLRLICAASGSTNPRNAMGWYRQAPGKERELDADITSGGSTNYADSVKGRFTISRDNAKNTVYLQMNRLKPEDTAVYYCAADEQVNTQYVVWGDYWGQGTQVTVSS” was “low polyreactivity”. Consider “QVQLVESGGGLVQAGGSLRLICAASGSTSQINAMGWYRQAPGKERELVAAINSGDITNYADSVKGRFTISRDNAKNTVYLQMNSLKPEDTAVYYCNADILVVKFDYWGQGTQVTVSS”, for which the “polyreactivity (PSR sort gate)” value is recorded as “low polyreactivity”. “QVQLVESGGGLVQAGGSLRLICAASGSTYSYYAMAWYRQAPGKERELVAAINSSGGSTYYADSEKGRFTISRDKAKNTVYLQMNSLKPEDTAVYYGAAARRRTGVRMDYWGQGTQVTVSS”: the “polyreactivity (PSR sort gate)” value was “high polyreactivity”.

Regarding “QVQLVESGGGLVQAGGSLRLICAASGYIFDHYAMGWYRQAPGKERELVAAINWSGGRTYYADSVKGRFTISRDNAKNTVYLQMNSLKPEDTAVYYCAAGGVSENDYWGQGTQVTVSS”, the “polyreactivity (PSR sort gate)” value was “high polyreactivity”. Then “QVQLVESGGGLVQAGGSLRLICAASRFTFPGYTLGWYRQEPGKERELVATINRSGSTTYADSVKGRFTISRDNAKNTVYLHMYRLKPQDTADYYCAAVVWGSGNKMDYWGQGTQVTGSS”, with “high polyreactivity”; and “QVQLVESGGGLVQAGGSLRLICAASRRTYYSNAMGWYRQAPGKERELVAASTSTDDSTYYADSVKGRFTISRDNAKNTVYLQMNSLKPEDTAVYYCNTDGLIAIRGLWWVEYDYWGQGTQVTVSS”, with “low polyreactivity”. The value for “QVQLVESGGGLVQAGGSLRLICAATGITFEGYAMGWYRQAPGKERELVAAIRSSGTSTYYADSVKGRFTISRDNAKNTVYLQMNSLKPEDTAVYYCNRARSSSRYDYWGQGTQVTVSS” was “low polyreactivity”.

Take “QVQLVESGGGLVQAGGSLRLICAAWSIFYLNAMGWYRQAPGKERELVAAISSAGSTYYADSVKGRFTISRDNAKNSVYLQMNSLKPEDTAVYYCAAYWYDSPGVTEIWYDYWGQGTQVTVSS”: the “polyreactivity (PSR sort gate)” value is on record as “low polyreactivity”.

Consider “QVQLVESGGGLVQAGGSLRLICAAYGLTFTRNAMGWYRQARGKERELVAGITRGGSTYHADSVKGRFTISRDNAKNTVYLQMNSLKPEYTAVYYCAAGVQYARYQARYYYWGQGTQVTVSS”, for which the “polyreactivity (PSR sort gate)” value is on record as “high polyreactivity”. The value for “QVQLVESGGGLVQAGGSLRLICADSGLTFSCYTMGGYRQAPGKERELVADITVSGGTTYYADSVKGRFSISRDNAKNTVYLQMNSLKPEDTSVYYCNAQDTFTYYSSSPTYDYWGQGTQVTVSS” was “low polyreactivity”.

For “QVQLVESGGGLVQAGGSLRLICADSGRIVPGYAMGWYRQAPGKERELVAAISTNGGRTYYADSVKGRFTISRDNAKYTVYFQRNSLKPEDTAVYYCNAARAVYTQKRFDSWGQGTQVTVSS”, the “polyreactivity (PSR sort gate)” value is “high polyreactivity”. “QVQLVESGGGLVQAGGSLRLICAPSGIIFTSNTMGWSRQAPGNERECVASINWNGSSTYADSVKGRFTISRDIAKNTVYLQMNSLKPEDTAVFYCNADYNRNSVQFSLYDYWGQGTQVTVSS”: the “polyreactivity (PSR sort gate)” value is “low polyreactivity”. In the case of “QVQLVESGGGLVQAGGSLRLICDASGRIFATNAIGWYRQAPGKERELVATITRSAGRTYYADSVKGRFTISRDNAKNTVYLQMNSLKPEDTAVYYCAASYWDTEPGYREYDYWGQGTQVTVSS”, the “polyreactivity (PSR sort gate)” value is “low polyreactivity”.

On to “QVQLVESGGGLVQAGGSLRLICDASGSIFEDYTMGWYRPGPGKERELVAASSRSGVRKYYADSVKGLFTISRDNAKNTVNLQMNSLKPEDTGVYYCARTRVASKGYDYWGQGTQVTVSS”, for which the “polyreactivity (PSR sort gate)” value was “high polyreactivity”. The value for “QVQLVESGGGLVQAGGSLRLICDASGSTFERYALGWYRQAPGKERELVAAITWGGGSTNYADSVKGRFTISRDNEKNTVYLQMNSLNPEDTAVYYCRPLYLGGDYWGQGTQVTVSS” was “low polyreactivity”; that for “QVQLVESGGGLVQAGGSLRLICSASGSIFPQYAMVSYRPEPGKERALFAAISYSGGRSYYADSVKGRFTISRDIAKNTVYLQMNSLKTEYTGVYYWAARVKRGIPTYGKCYYAFGDWGQGTQVTVSS” was “high polyreactivity”. For the sequence “QVQLVESGGGLVQAGGSLRLISAASGITFRYYVMGWYRHAPGKERELVASISWGGGSTYYADSVKGRFTISRDNAKNTVYLHMNSLIPEDTAVYYCAAEYWVPAVKFGYEFWGQGSQVTVSS”, the “polyreactivity (PSR sort gate)” value was “high polyreactivity”. Then “QVQLVESGGGLVQAGGSLRLISAASGRTFRVYAIGWYRPAPGKEREFVATISVRGGSTYYADSVKGRFTISRDNAKNTVYLQMNSLKPEDTAFYYCAADSYPYVYALYDYWGQGTQVTVSS”, with “low polyreactivity”; and “QVQLVESGGGLVQAGGSLRLISAASGSIFDEYAMGWYRQAPGKERELVAAISSSGTSTYYADSVKGRFTISRDNAKNTVYLQMNSLKPEYTAVYYCAARSAFLKSGYLMDYWGHGTQVTVSS”, with “low polyreactivity”. Take “QVQLVESGGGLVQAGGSLRLMCAASGSTFRRNAMGWYRQAPGKERELVASISWRAGSTYYADSVKGRFTISRDNAKNTVYLQMNSLKQEDTAVYYCAASYYYYPSWEYEYWGQGTQVTVSS”: the “polyreactivity (PSR sort gate)” value was “high polyreactivity”. “QVQLVESGGGLVQAGGSLRLNCAASGFTFYTYAMGWYRQAPGKERELVAAITSGGGTYYADSVKGRFTISRDNAKYSVYLQMNSLKPEDTAVYYCNRASRRGYYYPYNYWGQGTQVTVSS”: the “polyreactivity (PSR sort gate)” value is given as “high polyreactivity”.

Turning to “QVQLVESGGGLVQAGGSLRLNCAASGIIFIVYRMGWYRQAPGKERELVASINYGNGSTYYADSVKGRFTISRDNAKTTVYLQMNSLKQEDTAVYYCNADYTGTRTDSVTPEYEYWGQGTQVTVSS”, the “polyreactivity (PSR sort gate)” value was “low polyreactivity”. Then “QVQLVESGGGLVQAGGSLRLNCAASGITCEYYAMGWYREAPGKERDLVAAISWSGGSTYYADSVKGRFTNSRDNANNTVYLQINSLKTEDTAVYDFYAVGFTYLDLYGYWGQGTQLTVSS”, with “high polyreactivity”; and “QVQLVESGGGLVQAGGSLRLRCAASANTFGFYAMGWYRQAPGKERELVAGITSGDSTYYADSVKGRFTISRDNAKNTVYLQMNSLKPEDSAVYYCATAPYVSSRRYGPYEYWGQGTQVTVSS”, with “low polyreactivity”. Take “QVQLVESGGGLVQAGGSLRLRCAASARTFGKYAMGWYRQAPGKERELVASNSLSGGSTYYADSVKGRFTISRDNAKNTVYLQMNSLKPEDTAVYSCAAKHGWYGLGYWGQGTQVTVSS”: the “polyreactivity (PSR sort gate)” value is recorded as “low polyreactivity”. For “QVQLVESGGGLVQAGGSLRLRCAASGFTFHRYAMGWYRPAPGKERELVAGITRRSGSTFYADSVKGRFTISRDNAKNTVYLQMNSLKPEDTAVYYCAATVPGLHWIYDYWGQGTQVTVSS”, the “polyreactivity (PSR sort gate)” value is given as “high polyreactivity”. Then “QVQLVESGGGLVQAGGSLRLRCAASGFTFYRYAMGWYRQAPGKERELVAAISQRGGTTYYADSVKGRFTISRDNSKNTVYLQMNSLKPDDPAVYYCAARGRAYQNAYEYDYWGQGTQVTVSS”, with “high polyreactivity”; and “QVQLVESGGGLVQAGGSLRLRCAASGFTSYINAMGWYRQAPGKERELVAGITWSTGNTYYADSVKGRFTISRDNAKNTVYLQMNSLKPEDTAVYYCAADFYVAYVGVQPYWMDYWGQGTEVTVSS”, with “low polyreactivity”. In the case of “QVQLVESGGGLVQAGGSLRLRCAASGGNFDNYAMGWYRQAPGKERELVAAISRSGSSTFYADSVNGRFTISRDNAKNTVYLQMNSLKPEDTAVYYCSARYYYFAVYYGYIFEYDYWGQGTQLTVSS”, the “polyreactivity (PSR sort gate)” value is given as “low polyreactivity”.

On to “QVQLVESGGGLVQAGGSLRLRCAASGIFAFYAMGWYRQAPGKERELVAGIDDGGSTDYADSVKGRFTISRDNAKNTVYLQMNSLKPEDTAVYYCAATERLEVWSRPYVWVTLDYRGQGTQVTVSS”, for which the “polyreactivity (PSR sort gate)” value is “low polyreactivity”. The value for “QVQLVESGGGLVQAGGSLRLRCAASGITFKWYAMGWYRQATGKEREFVAIISTRAGSTYYADSVKGRFTISRDNAKNTVSLQMNSLIPEDSAVYYCNAVRSRGLHRRGDFDYWGQGTQVTVSS” was “high polyreactivity”.

The values are drawn from the nanobody polyreactivity screen of Harvey et al. (2022).
